Results reported in patent publication US20140024555A1 (LOS ALAMOS NATIONAL SECURITY, published 2014).

T1: YheM subunit of the E. coli YheML construct, with N-terminal 6-His tag (Escherichia coli, UniProt P45531 1-119)
T1 construct: Negative control construct in which YheN is omitted; the first subunit of each construct carries the 6-His tag; also called TusC; first subunit of Yhe ML; not shown: N-terminal 6-His tag from the N-6His pTET S11 vector
T1 sequence: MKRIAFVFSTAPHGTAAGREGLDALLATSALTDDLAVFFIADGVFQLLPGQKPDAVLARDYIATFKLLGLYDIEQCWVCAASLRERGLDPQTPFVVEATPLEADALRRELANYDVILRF

T2: YBGK of Escherichia coli with C-terminal GFP S11 tag (Escherichia coli, UniProt P75745 1-310)
T2 construct: Labelled by complementation with co-expressed GFP 1-10 detector; also called last subunit of YBGJ/YBGK (predicted allophanate hydrolase); not shown: flexible linker and C-terminal GFP S11 tag of the pTET S11 vector
T2 sequence: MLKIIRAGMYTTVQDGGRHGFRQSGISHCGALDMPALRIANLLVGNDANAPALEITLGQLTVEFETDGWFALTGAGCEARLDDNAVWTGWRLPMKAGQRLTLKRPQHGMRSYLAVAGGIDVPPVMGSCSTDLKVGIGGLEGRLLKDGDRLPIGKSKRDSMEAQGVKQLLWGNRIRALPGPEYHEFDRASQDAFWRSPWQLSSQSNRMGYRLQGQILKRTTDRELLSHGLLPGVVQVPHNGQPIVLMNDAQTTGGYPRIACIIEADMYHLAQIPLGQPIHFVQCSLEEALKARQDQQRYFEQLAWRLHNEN


Columns and labels:
[1] = biological target: T1, YheM subunit of the E. coli YheML …; assay: colony filtration immobilized bead assay: 6-His subunit captured on Talon resin in agarose, GFP S11 subunit read by complemented GFP fluorescence; YheML construct with YheN omitted
[2] = biological target: T2, YBGK of Escherichia coli with …; assay: colony filtration immobilized bead assay, capture plates with TNG buffer (FIG. 4B); complex 6

Row | Binder | binding result [1] | binding result [2]
1 | YheL subunit of the E. coli YheNML / YheML constructs, with C-terminal GFP S11 tag (other, Fluorescently labelled in the cell by complementation with co-expressed GFP 1-10 detector; also called TusB; last subunit of Yhe NML and Yhe ML; not shown: flexible linker and C-terminal GFP S11 tag (beta-strand 11, residues 215-230) of the pTET S11 vector; the S11 variant an) MLHTLHRSPWLTDFAALLRLLSEGDELLLLQDGVTAAVDGNRYLESLRNAPIKVYALNEDLIARGLTGQISNDIILIDYTDFVRLTVKHPSQMAW | no binding | –
2 | YBGJ of Escherichia coli with N-terminal 6-His tag (other, also called predicted allophanate hydrolase; not shown: N-terminal 6-His tag from the N-6His pTET S11 vector) MQRARCYLIGETAVVLELEPPVTLASQKRIWRLAQRLVDMPNVVEAIPGMNNITVILRNPESLALDAIERLQRWWEESEALEPESRFIEIPVVYGGAGGPDLAVVAAHCGLSEKQVVELHSSVEYVVWFLGFQPGFPYLGSLPEQLHTPRRAEPRLLVPAGSVGIGGPQTGVYPLATPGGWQLIGHTSLSLFDPARDEPILLRPGDSVRFVPQKEGVC | – | binds
